Results on two substances are retold here after patent publication US20220409694A1, “POLYPEPTIDE, AND PREPARATION METHOD THEREFOR AND USE THEREOF” (SHANXI JINBO BIO-PHARMACEUTICAL CO., LTD., priority 2020, published 2022).

Common to all, as to assay: cell-based or functional assay
The target of experiment [1] is SARS-CoV S protein (pcDNA3.1-SARS-CoV-S, on pseudovirus) (SARS-CoV) (UniProt P59594).
For experiment [2], the target named is S protein of live 2019-nCoV (SARS-CoV-2) virus (2019-nCoV (SARS-CoV-2)) (UniProt P0DTC2).
Experiment [3] has as its target WIV1-CoV S protein (pcDNA3.1-WIV1-CoV-S, on pseudovirus) (WIV1-CoV (SARS-like virus from bats)).
The target of experiment [4] is 2019-nCoV S protein (2019-nCoV-S, as encoded in pAAV-IRES-EGFP-2019-nCoV-S / pcDNA3.1) (2019-nCoV (SARS-CoV-2)) (UniProt P0DTC2).
Experiment [5] addresses Rs3367-CoV S protein (pcDNA3.1-Rs3367-CoV-S, on pseudovirus) (Rs3367-CoV (SARS-like virus from bats)).

On to EK1-chol (peptide), for which the Inhibitory Activity, IC50 (pseudovirus infection of HuH7, luciferase) in experiment [1] is 10 nM; in experiment [3], 40 nM; in experiment [4], 20 nM; in experiment [5], 30 nM. In addition, the IC50, 2019-nCoV live virus (plaque reduction assay, VERO-E6) in experiment [2] came out at 36.5 nM.

As to EK1-plam (peptide), the Inhibitory Activity, IC50 (pseudovirus infection of HuH7, luciferase) was 170 nM in experiment [1], 100 nM in experiment [3], 360 nM in experiment [4] and 130 nM in experiment [5]. This substance came in with an IC50, 2019-nCoV live virus (plaque reduction assay, VERO-E6) in experiment [2] of 436 nM.
